In US20200277377A1 (WUXI BIOLOGICS SHANGHAI, published 2020):
Numbering of substitutions follows the chain as printed.

How the values were obtained:
Experiment in all cases: capture ELISA, alanine scan, vs silent alanine substitutions
[1] = target: T1, hCTLA4_ECD.His point mutant V81 to alanine (human, UniProt P16410 36-161)
T1 construct: extracellular domain; alanine-scan mutein, HEK293F supernatant
T1 sequence (looked up): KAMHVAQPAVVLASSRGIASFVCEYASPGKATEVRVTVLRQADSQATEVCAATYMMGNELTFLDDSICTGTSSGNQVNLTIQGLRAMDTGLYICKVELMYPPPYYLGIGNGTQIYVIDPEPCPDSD
In short: (§1)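 Secreted His-tagged CTLA4 point muteins in quantified supernatant were captured and probed with HRP anti-His antibody and TMB. Absorbance normalised to the mean of control mutants; epitope residues were assigned with a binding fold-change cutoff of <0.55.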

[2] = target: T2, hCTLA4_ECD.His point mutant Y127 to alanine (human, UniProt P16410 36-161)
T2 construct: extracellular domain; alanine-scan mutein, HEK293F supernatant
T2 sequence (looked up): T1 sequence (looked up) with A46V, Y92A
In short: as §1

[3] = target: T3, hCTLA4_ECD.His point mutant I128 to alanine (human, UniProt P16410 36-161)
T3 construct: extracellular domain; alanine-scan mutein, HEK293F supernatant
T3 sequence (looked up): T1 sequence (looked up) with A46V, I93A
In short: as §1

Fold change [1]: 0.191 fold | Fold change [2]: 0.529 fold | Fold change [3]: 0.256 fold
B1: W3162-1.146.19-z12-uAb.IgG1K (antibody, V domains shown)
VH: QVQLQESGPGLVKPSETLSLTCSVTYHTITSGYDWTWIRKPPGKGMEWIGYISYSGNTNYNPSLKSRVTISRDTSKNQFFLKLSSVTAADTAVYYCASMMVPHYYVMDAWGQGTLVTVSS
VL: DIVMTQTPLSLSVTPGQPASISCRSSQSLLNSDGNTYLYWYLQKPGQSPQLLIYLVSKLGSGVPNRFSGSGSGTDFTLKISRVEAEDVGVYYCVQGTHDPWTFGGGTKVEIK
notes: Humanized; label says IgG1K
